Measurements: article doi:10.1101/2024.04.04.584535, “Human Saposin B Ligand Binding and Presentation to α-Galactosidase A” (bioRxiv, 2024)
Residue numbers refer to the chain shown, from its start. In names and notes the source's numbering stands. Values belong to the molecule of their own block, whether it stands above or below them.

T1: SapB (saposin B; sphingolipid activator protein B) (Homo sapiens, UniProt P07602)
T1 sequence (P07602 195-273): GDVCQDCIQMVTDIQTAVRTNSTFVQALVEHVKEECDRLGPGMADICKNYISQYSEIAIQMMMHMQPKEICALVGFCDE

T2: SapD (saposin D) (Homo sapiens, UniProt P07602)
T2 construct: gene PSAP; mature saposin D, E. coli expressed
T2 sequence (P07602 405-486): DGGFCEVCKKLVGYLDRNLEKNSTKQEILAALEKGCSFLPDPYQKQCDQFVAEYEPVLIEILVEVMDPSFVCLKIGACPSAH

T3: α-galactosidase A, wild type (human, UniProt P06280 32-429)
T3 sequence (looked up): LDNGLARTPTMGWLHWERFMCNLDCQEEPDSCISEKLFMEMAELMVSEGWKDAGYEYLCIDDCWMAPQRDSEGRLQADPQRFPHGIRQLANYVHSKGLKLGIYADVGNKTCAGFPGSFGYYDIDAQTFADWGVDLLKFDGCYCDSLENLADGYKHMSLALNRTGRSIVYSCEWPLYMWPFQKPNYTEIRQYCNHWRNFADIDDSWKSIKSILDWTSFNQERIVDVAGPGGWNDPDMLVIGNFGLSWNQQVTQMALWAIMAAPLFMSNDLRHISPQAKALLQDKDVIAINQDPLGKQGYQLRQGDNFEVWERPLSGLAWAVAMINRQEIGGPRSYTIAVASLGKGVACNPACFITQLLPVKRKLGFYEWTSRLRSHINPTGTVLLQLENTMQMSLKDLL

B1: Saposin D (natural protein, human, UniProt P07602 405-486, looked up)
chain: T2 sequence (P07602 405-486)
notes: saposin D, the mature cut product of prosaposin (UniProt P07602); Tag printed as enterokinase-cleavable N-terminal His8-DDDDK-GAS; GAS probably left after cleavage (surmised); also called SapD; source: E. coli Shuffle T7 Express, purified (heat shock, Ni agarose, enterokinase cleavage, SEC); not shown: His8, N-terminal, cleaved
B2: α-galactosidase A (GLA) (Homo sapiens) (protein)
chain: T3 sequence (looked up)
notes: wild-type human GLA, C-terminal 2x-FLAG, Sf9 expressed
B3: α-galactosidase A D170A (catalytic nucleophile mutant) (enzyme, human)
chain: T3 sequence (looked up) with D139A
notes: human α-galactosidase A (UniProt P06280), D170A mutant; Secreted into the Sf9 supernatant, so the signal peptide is probably removed (surmised); Glycosylated; Homodimer; also called GLA^D170A; GLA

Assays:
[1] = molecular target: T1, SapB (saposin B; sphingolipid activator protein B); assay: NBD fluorescence equilibrium binding (pH […] days), weak; set-up: gene PSAP; mature saposin B, E. coli expressed
[2] = molecular target: T1, SapB (saposin B; sphingolipid activator protein B); assay: NBD fluorescence equilibrium binding (pH […] h); also SEC co-migration and LC-MS of co-crystals; set-up: gene PSAP; mature saposin B, E. coli expressed (SapB dimer)
[3] = molecular target: T2, SapD (saposin D); assay: NBD fluorescence equilibrium binding, acidic pH only
[4] = molecular target: T3, α-galactosidase A, wild type
[5] = molecular target: Sphingolipid activator protein B (saposin B) (human) (UniProt P07602); assay: cross-linking; BS3 cross-linker (0-1 mM), 10 μM GLA^D170A or GAA, 50-100 μM SapB (with 20% SapB^ANBD in some gels) or 100 μM SapD, 0-200 μM Gb3-NBD, PBS pH 6.5, one hour; Tricine-SDS-PAGE with One-Step Blue stain, in-gel NBD fluorescence and anti-GLA western blot; also at 10 μM SapB^ANBD, 1 μM GLA^D170A, 50 μM Gb3-NBD
[6] = molecular target: Sphingolipid activator protein B (saposin B) (human) (UniProt P07602); assay: crystal structure; SapB co-crystallised with Gb3-NBD at about molar equivalence; 3.25 M malonate pH 5, 20 °C; 2.68 Å
[7] = molecular target: T3, α-galactosidase A, wild type; assay: cell-based or functional assay
[8] = molecular target: B3; assay: cross-linking; BS3 cross-linker (0-1 mM), 10 μM GLA^D170A or GAA, 50-100 μM SapB (with 20% SapB^ANBD in some gels) or 100 μM SapD, 0-200 μM Gb3-NBD, PBS pH 6.5, one hour; Tricine-SDS-PAGE with One-Step Blue stain, in-gel NBD fluorescence and anti-GLA western blot; also at 10 μM SapB^ANBD, 1 μM GLA^D170A, 50 μM Gb3-NBD; details: both partners purified
[9] = substrate: O=[N+]([O-])c1ccc(O[C@H]2O[C@H](CO)[C@H](O)[C@H](O)[C@H]2O)cc1; assay: purified protein; type: biochemical, Homo sapiens
[10] = molecular target: the molecule itself; assay: crystal structure; SapB preincubated with DDAO detergent (~1:47) at pH 5, mixed with GLA^D170A; crystals in 0.1 M Tris pH 8, 1 M ammonium sulfate, 20 °C; 3.53 Å

Kd [1]: > 95 µM
Molecule: CCCCCCCCCCCCCCC[C@@H](O)[C@H](CO)NC(=O)CCCCCCCCCCCNc1ccc([N+](=O)[O-])c2nonc12 [Cer-NBD]

Kd [2]: 5.8 ± 0.5 µM
Kd [3]: 38 ± 2 µM
Molecule: CCCCCCCCCCCCC/C=C/[C@@H](O)[C@H](CO[C@@H]1O[C@H](CO)[C@@H](O[C@@H]2O[C@H](CO)[C@H](O[C@H]3O[C@H](CO)[C@H](O)[C@H](O)[C@H]3O)[C@H](O)[C@H]2O)[C@H](O)[C@H]1O)NC(=O)CCCCCCCCCCCNc1ccc([N+](=O)[O-])c2nonc12 [Gb3-NBD]

galactose production from Gb3-NBD by GLA in an 18-hour enzyme-activator assay, relative to wild-type SapB [4]: 80%
Molecule: SapB^ANBD (SapB N21C labelled with IANBD amide) (natural protein)

stoichiometry N [5]: 2
stoichiometry N [6]: 2
Molecule: Sphingolipid activator protein B (saposin B) (from UniProt P07602 195-273) (natural protein)

Molecule: B1
free galactose released from Gb3-NBD by wild-type GLA after 2.5 hours in acidic buffer (Amplex Red galactose assay); SapD at a tenfold molar excess to GLA [7]: ~5 µM
binding result [8]: binds

Molecule: B2
Km [9]: 9.9 mM

Molecule: B3
Km [9]: 7.4 mM
stoichiometry N [10]: 2
